Assay results reported in article PMC5900569.

tested on: cTSN (Tudor staphylococcal nuclease) (Caenorhabditis elegans); test: filter binding; conditions: 50 mM HEPES pH 7.0, 250 mM NaCl, 5 mM beta-mercaptoethanol, 2 mM EDTA, 30 min, room temperature; cTSN 0-2 uM

Sequence | Kd [nM]
CAGUCACCCAUAAAGUAGAAAGCACUAC / GUAGUGUUUCCUACUUUAUGGAUGAGUG [pre-miR142Δloop] | 236
ACUGGACAAAUACUCCGAGG [ssRNA 20 nt] | 767
ACUGGACAAAUACUCCGAGG / CCUCGGAGUAUUUGUCCAGU [dsRNA 20 bp] | 393
CAGUCACCCAUAAAGUAGAAAGCACUACUGUGGGUAGUGUUUCCUACUUUAUGGAUGAGUG [pre-miR142] | 136

same assay, conditions: inosine (A-to-I edited, positions in Figure 3); 50 mM HEPES pH 7.0, 250 mM NaCl, 5 mM beta-mercaptoethanol, 2 mM EDTA, 30 min, room temperature; cTSN 0-2 uM

Sequence | Kd [nM]
CAGUCACCCAUAAAGUAGAAAGCACUAC / GUAGUGUUUCCUACUUUAUGGAUGAGUG [pre-miR142Δloop-AtoI] | 68.3
CAGUCACCCAUAAAGUAGAAAGCACUACUGUGGGUAGUGUUUCCUACUUUAUGGAUGAGUG [pre-miR142-AtoI] | 74.6
